The chains are these.
B1: ANKRD44 (parent)
chain: FHCIETLVTTGANVNETDDWGRTA
B2: RAB11B (parent)
chain: AVPTDEARAFAEKNNLSFIETSAL

Drawing on the supplement of paper PMC10567573, this text covers protein stability index for 94 variants.
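Further: lentivirally expressed fusions sorted by FACS into six bins by GFP to DsRed ratio, PSI derived from sequencing read proportions per bin multiplied by bin number.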

One data set covers variants of B1. In words: protein stability index of a GFP-peptide fusion (GPS, HEK-293T) (PSI 1-6); higher = more stable. The settings on record: c terminus: a fixed tail appended.
FHCIETLVTTGANVNEEDDWGRTA [T17E]: the protein stability index is 2.84.

Take FHCIETLVTTGANVNEIDDWGRTA [T17I]: the protein stability index amounted to 2.24.

Regarding NHCIETLVTTGANVNETDDWGRTA [F1N], the protein stability index worked out at 4.5.

As to CHCIETLVTTGANVNETDDWGRTA [F1C], the protein stability index came out at 2.18.

On to AHCIETLVTTGANVNETDDWGRTA [F1A], for which the protein stability index was found to be 4.69.

IHCIETLVTTGANVNETDDWGRTA [F1I]: the protein stability index was 3.13.

Turning to DHCIETLVTTGANVNETDDWGRTA [F1D], the protein stability index is 4.81.

FHCIETLVTTGANVNETDHWGRTA [D19H]: the protein stability index amounted to 1.73.

With FHCIETLVTTGANVNETDRWGRTA [D19R], the protein stability index was 1.66.

With FHCIETLVTTGANVNETDWWGRTA [D19W], the protein stability index stood at 2.44.

As to FHCIETLVTTGANVNETDTWGRTA [D19T], the protein stability index is 1.88.

As for FHCIETLVTTGANVNETDSWGRTA [D19S], the protein stability index was 1.72.

FHCIETLVTTGANVNETDAWGRTA [D19A]: the protein stability index is 1.56.

For the variant FHCIETLVFTGANVNETDDWGRTA [T9F], the protein stability index stood at 1.25.

Turning to FHCIETLVYTGANVNETDDWGRTA [T9Y], the protein stability index came to 1.54.

For FHCIETLVSTGANVNETDDWGRTA [T9S], the protein stability index was found to be 2.23.

Consider FHCIETLVRTGANVNETDDWGRTA [T9R], for which the protein stability index turned out to be 1.86.

With FHCIETLVTTGANVNETDDIGRTA [W20I], the protein stability index worked out at 2.4.

As to FHCIETLVTTGANVNETDDHGRTA [W20H], the protein stability index was determined as 2.94.

For FHCIETLVTTGANVNETDDTGRTA [W20T], the protein stability index was 3.27.

Variants of B2 are the subject of another data set. The description is as above. To be noted: c terminus: a fixed tail appended.
Turning to AVPTDEARAFAEKNNLSFIFTSAL [E20F], the protein stability index was found to be 1.62.

Consider AVPTDEARAFAEKNNLSFISTSAL [E20S], for which the protein stability index was found to be 3.18.

With AVPTDEARAFAEANNLSFIETSAL [K13A], the protein stability index came out at 3.08.

With AVPTDEARAFAEQNNLSFIETSAL [K13Q], the protein stability index was determined as 2.84.

For AVPTDEARAFAEGNNLSFIETSAL [K13G], the protein stability index is 3.17.

In the case of AVPTDEARAFAEMNNLSFIETSAL [K13M], the protein stability index worked out at 2.09.

In the case of AVPTDEARAFAEVNNLSFIETSAL [K13V], the protein stability index was determined as 2.13.

As to AVGTDEARAFAEKNNLSFIETSAL [P3G], the protein stability index worked out at 2.92.

For the variant AVVTDEARAFAEKNNLSFIETSAL [P3V], the protein stability index came to 3.05.

In the case of AVHTDEARAFAEKNNLSFIETSAL [P3H], the protein stability index is 2.33.

AVWTDEARAFAEKNNLSFIETSAL [P3W]: the protein stability index was 2.91.

In the case of AVETDEARAFAEKNNLSFIETSAL [P3E], the protein stability index is 3.33.

For the variant AVPTWEARAFAEKNNLSFIETSAL [D5W], the protein stability index was 1.38.

With AVPTHEARAFAEKNNLSFIETSAL [D5H], the protein stability index was 2.61.

Take AVPTDEARAFAEKNNLSFIETSEL [A23E]: the protein stability index amounted to 4.41.

On to AVPTDEARAFAEKNNLSFIETSWL [A23W], for which the protein stability index amounted to 2.15.

On to AVPTDVARAFAEKNNLSFIETSAL [E6V], for which the protein stability index amounted to 2.08.

In the case of AVPTDWARAFAEKNNLSFIETSAL [E6W], the protein stability index is 2.04.

Regarding AVPTDYARAFAEKNNLSFIETSAL [E6Y], the protein stability index came to 1.67.

For PVPTDEARAFAEKNNLSFIETSAL [A1P], the protein stability index was found to be 3.02.

As to GVPTDEARAFAEKNNLSFIETSAL [A1G], the protein stability index stood at 3.06.

Regarding NVPTDEARAFAEKNNLSFIETSAL [A1N], the protein stability index came to 2.88.

AVPTDELRAFAEKNNLSFIETSAL [A7L]: the protein stability index was 2.16.

As for AVPTDEARAFIEKNNLSFIETSAL [A11I], the protein stability index was found to be 2.66.

With AVPTDEARAFSEKNNLSFIETSAL [A11S], the protein stability index came out at 2.68.

As for AVPTDEARAFLEKNNLSFIETSAL [A11L], the protein stability index is 2.4.

With AVPTDEARAFNEKNNLSFIETSAL [A11N], the protein stability index turned out to be 2.87.

As to AVPIDEARAFAEKNNLSFIETSAL [T4I], the protein stability index was determined as 2.77.

On to AVPHDEARAFAEKNNLSFIETSAL [T4H], for which the protein stability index turned out to be 2.5.

Take AVPNDEARAFAEKNNLSFIETSAL [T4N]: the protein stability index came out at 2.65.

Take AVPTDEARTFAEKNNLSFIETSAL [A9T]: the protein stability index was 3.02.

In the case of AVPTDEARGFAEKNNLSFIETSAL [A9G], the protein stability index is 2.85.

AVPTDEARPFAEKNNLSFIETSAL [A9P]: the protein stability index was 2.44.

Take AVPTDEARRFAEKNNLSFIETSAL [A9R]: the protein stability index is 2.32.

Take AVPTDEARAFAEKNNLSFIETLAL [S22L]: the protein stability index stood at 3.08.

Regarding AVPTDEARAFAEKNNLSFIETCAL [S22C], the protein stability index is 3.36.

In the case of AVPTDEARAFAEKNNLSFIETNAL [S22N], the protein stability index worked out at 3.69.

As for ANPTDEARAFAEKNNLSFIETSAL [V2N], the protein stability index was 3.85.

In the case of AHPTDEARAFAEKNNLSFIETSAL [V2H], the protein stability index came out at 3.86.

With ARPTDEARAFAEKNNLSFIETSAL [V2R], the protein stability index was 2.35.

For AVPTDEAPAFAEKNNLSFIETSAL [R8P], the protein stability index was 2.65.

AVPTDEARAFAEKLNLSFIETSAL [N14L]: the protein stability index is 2.23.

AVPTDEARAFAEKHNLSFIETSAL [N14H]: the protein stability index turned out to be 2.26.

For AVPTDEARAFATKNNLSFIETSAL [E12T], the protein stability index is 2.61.

For the variant AVPTDEARAFAMKNNLSFIETSAL [E12M], the protein stability index amounted to 1.97.

In the case of AVPTDEARAFAEKNNLSSIETSAL [F18S], the protein stability index was determined as 4.89.

With AVPTDEARAFAEKNNLSQIETSAL [F18Q], the protein stability index was determined as 4.18.

In the case of AVPTDEARAFAEKNNLSRIETSAL [F18R], the protein stability index is 4.29.

As for AVPTDEARAFAEKNNLSIIETSAL [F18I], the protein stability index is 4.23.

For the variant AVPTDEARAFAEKNNLSKIETSAL [F18K], the protein stability index is 4.67.

For the variant AVPTDEARAFAEKNNLSAIETSAL [F18A], the protein stability index was 4.78.

Turning to AVPTDEARAFAEKNNLSMIETSAL [F18M], the protein stability index was 4.1.

For AVPTDEARAYAEKNNLSFIETSAL [F10Y], the protein stability index came out at 3.2.

On to AVPTDEARALAEKNNLSFIETSAL [F10L], for which the protein stability index came to 3.19.

Consider AVPTDEARAKAEKNNLSFIETSAL [F10K], for which the protein stability index was found to be 2.89.

With AVPTDEARAFAEKNNLRFIETSAL [S17R], the protein stability index was 3.41.

Regarding AVPTDEARAFAEKNNLFFIETSAL [S17F], the protein stability index was 2.59.

With AVPTDEARAFAEKNNLCFIETSAL [S17C], the protein stability index was 3.

For the variant AVPTDEARAFAEKNNLMFIETSAL [S17M], the protein stability index worked out at 3.1.

Turning to AVPTDEARAFAEKNNLTFIETSAL [S17T], the protein stability index was 2.93.

Take AVPTDEARAFAEKNNLVFIETSAL [S17V]: the protein stability index worked out at 3.15.

For AVPTDEARAFAEKNNLSFCETSAL [I19C], the protein stability index was 4.34.

As to AVPTDEARAFAEKNNLSFDETSAL [I19D], the protein stability index was 4.99.

Turning to AVPTDEARAFAEKNNLSFAETSAL [I19A], the protein stability index came to 4.6.

In the case of AVPTDEARAFAEKNNLSFYETSAL [I19Y], the protein stability index amounted to 3.73.

On to AVPTDEARAFAEKNNLSFIETSAC [L24C], for which the protein stability index was determined as 3.38.

On to AVPTDEARAFAEKNNLSFIETSAV [L24V], for which the protein stability index came to 3.57.

Turning to AVPTDEARAFAEKNNLSFIETSAS [L24S], the protein stability index worked out at 4.25.

As to AVPTDEARAFAEKNNASFIETSAL [L16A], the protein stability index was 3.8.

Consider AVPTDEARAFAEKNNWSFIETSAL [L16W], for which the protein stability index worked out at 3.25.

For the variant AVPTDEARAFAEKNNPSFIETSAL [L16P], the protein stability index worked out at 4.47.

With AVPTDEARAFAEKNNMSFIETSAL [L16M], the protein stability index was found to be 4.2.

Regarding AVPTDEARAFAEKNNGSFIETSAL [L16G], the protein stability index stood at 4.3.

For AVPTDEARAFAEKNNQSFIETSAL [L16Q], the protein stability index is 4.
